Data published in publication doi:10.1101/2020.03.30.016154 (bioRxiv, 2020).

Biological target: the molecule itself
Assay: cryo-EM structure

B1: full-length mouse serotonin (3A) receptor (5-HT3AR) (receptor, UniProt P23979-2 24-483, looked up)
chain: SRRRATQARDTTQPALLRLSDHLLANYKKGVRPVRDWRKPTTVSIDVIMYAILNVDEKNQVLTTYIWYRQYWTDEFLQWTPEDFDNVTKLSIPTDSIWVPDILINEFVDVGKSPNIPYVYVHHRGEVQNYKPLQLVTACSLDIYNFPFDVQNCSLTFTSWLHTIQDINITLWRSPEEVRSDKSIFINQGEWELLEVFPQFKEFSIDISNSYAEMKFYVIIRRRPLFYAVSLLLPSIFLMVVDIVGFCLPPDSGERVSFKITLLLGYSVFLIIVSDTLPATAIGTPLIGVYFVVCMALLVISLAETIFIVRLVHKQDLQRPVPDWLRHLVLDRIAWILCLGEQPMAHRPPATFQANKTDDCSAMGNHCSHVGGPQDLEKTPRGRGSPLPPPREASLAVRGLLQELSSIRHFLEKRDEMREVARDWLRVGYVLDRLLFRIYLLAVLAYSITLVTLWSIWHYS
- stoichiometry N: 5
